Series [1] concerns the target T1, dOVA-2 (ovalbumin misfolded by five heat cycles 30 to 85 C), P01012.
T1 chain: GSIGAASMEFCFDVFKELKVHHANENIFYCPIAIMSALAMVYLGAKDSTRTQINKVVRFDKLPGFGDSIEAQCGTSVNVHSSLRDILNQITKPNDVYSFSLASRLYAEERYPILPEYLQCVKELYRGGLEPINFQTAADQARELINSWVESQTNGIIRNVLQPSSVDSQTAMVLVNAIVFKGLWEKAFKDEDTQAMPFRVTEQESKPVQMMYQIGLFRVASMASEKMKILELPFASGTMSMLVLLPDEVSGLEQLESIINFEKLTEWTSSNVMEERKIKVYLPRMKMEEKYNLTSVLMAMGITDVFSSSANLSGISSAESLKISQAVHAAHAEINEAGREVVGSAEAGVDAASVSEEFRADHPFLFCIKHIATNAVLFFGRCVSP

The target of series [2] is nH5 (non-treated H5 of H5N1 strain A/Vietnam/1203/04, Protein Sciences, NaCl adjusted to 171 mM).
Series [3] deals with T2, dOVA-1 (ovalbumin misfolded by HCl treatment, 40 min 37 C, neutralized), P01012.
T2 chain: T1 chain

The target in series [4] is T3, dOVA-3 (ovalbumin misfolded by about 16 h at 75 C), P01012.
T3 chain: T1 chain

Series [5] addresses T4, nOVA (non-treated ovalbumin, 1 mg/ml in PBS), P01012.
T4 chain: T1 chain

The target of series [6] is CH5-3 (nH5 of A/VN/1203/04 heat cycled at pH 12).
The target in series [7] is CH5-1 (nH5 of A/VN/1203/04 misfolded by three heat cycles 25-85 C).
The target in series [8] is CH5-4 (nH5 of A/VN/1203/04 incubated with 100 mM glucose-6-phosphate for 67 h at 80 C).
Series [9] concerns the target CH5-2 (nH5 of A/VN/1203/04 heat cycled at pH 2).

B1: tissue type plasminogen activator (tPA) (protein)
chain: SYQVICRDEKTQMIYQQHQSWLRPVLRSNRVEYCWCNSGRAQCHSVPVKSCSEPRCFNGGTCQQALYFSDFVCQCPEGFAGKCCEIDTRATCYEDQGISYRGTWSTAESGAECTNWNSSALAQKPYSGRRPDAIRLGLGNHNYCRNPDRDSKPWCYVFKAGKYSSEFCSTPACSEGNSDCYFGNGSAYRGTHSLTESGASCLPWNSMILIGKVYTAQNPSAQALGLGKHNYCRNPDGDAKPWCHVLKNRRLTWEYCDVPSCSTCGLRQYSQPQFRIKGGLFADIASHPWQAAIFAKHRRSPGERFLCGGILISSCWILSAAHCFQERFPPHHLTVILGRTYRVVPGEEEQKFEVEKYIVHKEFDDDTYDNDIALLQLKSDSSRCAQESSVVRTVCLPPADLQLPDWTECELSGYGKHEALSPFYSERLKEAHVRLYPSSRCTSQHLLNRTVTDNMLCAGDTRSGGPQANLHDACQGDSGGPLVCLNDGRMTLVGIISWGLGCGQKDVPGVYTKVTNYLDWIRDNMRP
In the case of B1, the tPA activation potency (tPA-mediated plasminogen activation, chromogenic); reference dOVA-2 at 80 ug/mL, column Activation at 10 ug/mL (% of reference) in [1] came out at 100. The tPA activation potency (tPA-mediated plasminogen activation, chromogenic); reference dOVA-2 at 80 ug/mL, column Activation at 25 ug/mL (% of reference) in series [1] was 100. The tPA activation potency, Activation at 10 ug/mL (% of reference) is 107 in series [1], 97.4 in series [3], 60.9 in [4] and 48.8 in series [5]. Moreover, the tPA activation potency, Activation at 25 ug/mL (% of reference) in [1] came to 107; in [3], 136; in series [4], 79; in [5] it was 48.1. Also, the “tPA/Plg activating potential, cross-beta ovalbumin standard at 10 ug/ml” value in series [1] was “at 10 and 50 ug/ml, tPA/plg activation is 100% and 85%, respectively”. Further, the “tPA/Plg activating potential, cross-beta ovalbumin standard at 30 ug/ml” value in series [1] is listed as “The activating potential of cross-beta ovalbumin standard at 30 ug/ml is set to 100%”. For the same protein, the “tPA/Plg activating potential, cross-beta ovalbumin standard at 50 ug/ml” value in series [1] was “at 10 and 50 ug/ml, tPA/plg activation is 100% and 85%, respectively”. For the same protein, the “tPA mediated plasminogen activation assay” value in series [2] was “nH5 (140% of standard)”; in [6] it was “CH5-3 (200% of standard)”; in [7] it was “CH5-1 (50% of standard)”; in series [8], “CH5-4 (37% of standard)”; in series [9], “CH5-2 (150% of standard)”.
